Data reported in patent publication US9187525B2, “Methods of treating ophthalmic diseases using NPR-B agonists” (Shire Orphan Therapies GmbH, dated 2015).
Numbered stars: 1 amine (or outer) side, 2 acyl side, 3 side chain; on linkers, the order of the positions; unused ones are H or OH. Square brackets hold non-standard residues; d marks the D form. Primed or numbered codes have the meaning given here. Ends that are not written are not given here. * marks the point of attachment. 5118 = (1R,2S)-ethyl 2-aminocyclohexanecarboxylate, CCOC(=O)[C@@H]1CCCC[C@@H]1N*; 5119 = (1R,2R)-ethyl 2-aminocyclohexanecarboxylate, CCOC(=O)[C@@H]1CCCC[C@H]1N*; 5116 = (1S,2R)-2-aminocyclohexanecarboxamide, NC(=O)[C@H]1CCCC[C@H]1N*; 1860″ = (1R,2R)-2-methylcyclohexanamine, C[C@@H]1CCCC[C@H]1N*; 5164 = (S)-3-amino-1-ethylazepan-2-one, CCN1CCCC[C@H](N*)C1=O; Sni = (S)-nipecotic acid, O=C([C@H]1CCCN([*:1])C1)[*:2]; 5121 = 1-propyl-butyl-amine, CCCC(CCC)N*; NMeK = CN[C@@H](CCCCN)C(=O)O; Octanoyl = CCCCCCCC(=O)*; 1270 = not defined here; 1859 = not defined here; 1860 = not defined here; 1906 = not defined here; 1934 = not defined here; 3791 = not defined here; 4956 = not defined here; 5163 = not defined here; 504 = not defined here; 559 = not defined here; 873 = not defined here; 933 = not defined here; Che = not defined here; ala = not defined here; pro = not defined here; Occ = octanoic acid

T1: natriuretic peptide receptor-B (human)
T1 chain: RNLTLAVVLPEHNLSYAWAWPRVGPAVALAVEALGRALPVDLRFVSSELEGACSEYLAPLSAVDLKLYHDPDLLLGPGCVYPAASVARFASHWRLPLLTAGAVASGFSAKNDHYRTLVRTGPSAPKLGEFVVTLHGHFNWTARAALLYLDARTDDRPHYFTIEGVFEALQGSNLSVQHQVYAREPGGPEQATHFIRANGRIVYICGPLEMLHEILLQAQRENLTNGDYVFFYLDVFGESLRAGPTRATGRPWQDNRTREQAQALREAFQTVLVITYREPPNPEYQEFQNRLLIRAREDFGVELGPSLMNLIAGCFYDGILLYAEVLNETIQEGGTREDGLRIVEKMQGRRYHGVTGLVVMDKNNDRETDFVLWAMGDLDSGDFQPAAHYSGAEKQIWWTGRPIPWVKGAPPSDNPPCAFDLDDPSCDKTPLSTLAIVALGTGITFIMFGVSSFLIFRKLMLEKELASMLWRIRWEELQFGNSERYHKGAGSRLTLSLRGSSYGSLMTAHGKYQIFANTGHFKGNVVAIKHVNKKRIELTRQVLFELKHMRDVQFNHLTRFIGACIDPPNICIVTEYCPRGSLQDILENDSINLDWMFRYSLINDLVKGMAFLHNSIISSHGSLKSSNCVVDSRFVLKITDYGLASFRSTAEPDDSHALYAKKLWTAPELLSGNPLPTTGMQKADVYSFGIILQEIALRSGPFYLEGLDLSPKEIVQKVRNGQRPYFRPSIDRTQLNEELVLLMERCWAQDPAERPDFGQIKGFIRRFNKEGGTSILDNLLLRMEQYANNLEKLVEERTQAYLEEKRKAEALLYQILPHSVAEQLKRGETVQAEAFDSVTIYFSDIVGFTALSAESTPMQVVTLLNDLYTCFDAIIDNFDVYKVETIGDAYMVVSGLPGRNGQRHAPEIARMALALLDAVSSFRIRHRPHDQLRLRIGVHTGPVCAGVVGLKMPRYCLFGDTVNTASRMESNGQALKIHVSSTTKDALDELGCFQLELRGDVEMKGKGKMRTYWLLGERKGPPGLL


Target: T1, natriuretic peptide receptor-B
Test: cell-based or functional assay

| Binder | EC50 group, cGMP in GTM-3 cells [µM] |
| --- | --- |
| Octanoyl-[ala][ala]FGLKLDR[5118] (reading uncertain; also: printed as Occ-ala-ala-Phe-Gly-Leu-Lys-Leu-Asp-Arg-5118) [JAL-0831] | ≤ 15 |
| Octanoyl-AFGLKLDR[Che] (not fully specified (some residues); printed as Occ-ala-Phe-Gly-Leu-Lys-Leu-Asp-Arg-Che; reading uncertain) [JAL-0840] | ≤ 15 |
| Octanoyl-AAFGLKLDR[873] (not fully specified (some residues); printed as Occ-ala-ala-Phe-Gly-Leu-Lys-Leu-Asp-Arg-873; reading uncertain) [JAL-0824] | ≤ 15 |
| Octanoyl-[ala][ala]FGLKLDR[5116] (reading uncertain; also: printed as Occ-ala-ala-Phe-Gly-Leu-Lys-Leu-Asp-Arg-5116) [JAL-0825] | ≤ 15 |
| Octanoyl-AAFGLKLDR[1860] (not fully specified (some residues); printed as Occ-ala-ala-Phe-Gly-Leu-Lys-Leu-Asp-Arg-1860; reading uncertain) [JAL-0789] | ≤ 5 |
| Octanoyl-AAFGLKLDR[504] (not fully specified (some residues); printed as Occ-ala-ala-Phe-Gly-Leu-Lys-Leu-Asp-Arg-504; reading uncertain) [JAL-0790] | ≤ 15 |
| Octanoyl-[ala][ala]FGLKLDR[5163] (reading uncertain; also: printed as Occ-ala-ala-Phe-Gly-Leu-Lys-Leu-Asp-Arg-5163) [JAL-0833] | ≤ 15 |
| Octanoyl-[ala]FGLPLDRI-NH2 (reading uncertain; also: printed as Occ-ala-Phe-Gly-Leu-Pro-Leu-Asp-Arg-Ile-NH2) [JAL-0835] | ≤ 15 |
| [Occ][Sni]FGLPLDRI-NH2 [JAL-0837] | ≤ 15 |
| Octanoyl-AFGLKLDR-5121 (not fully specified (some residues); printed as Occ-ala-Phe-Gly-Leu-Lys-Leu-Asp-Arg-5121) [JAL-0841] | ≤ 15 |
| Octanoyl-AAFGL[NMeK]LDRI-NH2 (not fully specified (some residues); printed as Occ-ala-ala-Phe-Gly-Leu-Nmk-Leu-Asp-Arg-Ile-) [JAL-0782] | ≤ 15 |
| Octanoyl-AFGLKLDR-{1860″} (not fully specified (some residues); printed as Occ-ala-Phe-Gly-Leu-Lys-Leu-Asp-Arg-1860) [JAL-0839] | ≤ 5 |
| Octanoyl-[ala][ala]FGLKLDR-5164 (reading uncertain; also: printed as Occ-ala-ala-Phe-Gly-Leu-Lys-Leu-Asp-Arg-5164) [JAL-0834] | ≤ 15 |
| Octanoyl-AAFGLKLDR[Che] (not fully specified (some residues); printed as Occ-ala-ala-Phe-Gly-Leu-Lys-Leu-Asp-Arg-Che; reading uncertain) [JAL-0797] | ≤ 5 |
| Octanoyl-[pro]FGLPLDRI-NH2 (reading uncertain; also: printed as Occ-pro-Phe-Gly-Leu-Pro-Leu-Asp-Arg-Ile-NH2) [JAL-0836] | ≤ 15 |
| Octanoyl-AAFGLKLDR[1906] (not fully specified (some residues); printed as Occ-ala-ala-Phe-Gly-Leu-Lys-Leu-Asp-Arg-1906; reading uncertain) [JAL-0801] | ≤ 5 |
| Octanoyl-[ala][ala]FGLKLDR[5119] (reading uncertain; also: printed as Occ-ala-ala-Phe-Gly-Leu-Lys-Leu-Asp-Arg-5119) [JAL-0826] | ≤ 5 |
| Octanoyl-AAFGLKLDR[1934] (not fully specified (some residues); printed as Occ-ala-ala-Phe-Gly-Leu-Lys-Leu-Asp-Arg-1934; reading uncertain) [JAL-0799] | ≤ 5 |
| Octanoyl-AAFGLKLDR[3791] (not fully specified (some residues); printed as Occ-ala-ala-Phe-Gly-Leu-Lys-Leu-Asp-Arg-3791; reading uncertain) [JAL-0792] | ≤ 15 |
| 933-AFGLKLDRI-NH2 (not fully specified (some residues); printed as 933-ala-Phe-Gly-Leu-Lys-Leu-Asp-Arg-Ile-NH2; reading uncertain) [JAL-0786] | ≤ 15 |
| 1270-AFGLKLDRI-NH2 (not fully specified (some residues); printed as 1270-ala-Phe-Gly-Leu-Lys-Leu-Asp-Arg-Ile-NH2; reading uncertain) [JAL-0787] | ≤ 15 |
| Octanoyl-AAFGLKLDR[1859] (not fully specified (some residues); printed as Occ-ala-ala-Phe-Gly-Leu-Lys-Leu-Asp-Arg-1859; reading uncertain) [JAL-0798] | ≤ 15 |
| Octanoyl-AAFGLKLDR[559] (not fully specified (some residues); printed as Occ-ala-ala-Phe-Gly-Leu-Lys-Leu-Asp-Arg-559; reading uncertain) [JAL-0791] | ≤ 15 |
| 4956-AFGLKLDRI-NH2 (not fully specified (some residues); printed as 4956-ala-Phe-Gly-Leu-Lys-Leu-Asp-Arg-Ile-NH2; reading uncertain) [JAL-0788] | ≤ 15 |
